Measurements from the supplement of paper PMC9732359.
± gives the uncertainty stated by the source.

Test: protein stability index of a GFP-peptide fusion (yeast GPS) (PSI 1-4); higher = more stable; sorted into four equal gates, so the index is relative within each strain
In short: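 Yeast carrying a pooled library were grown to mid-log phase in leucine-free medium. Each library plasmid expresses Cherry and has a tiled 17-residue yeast protein peptide fused downstream of GFP. Cells were sorted into four equal gates by GFP/Cherry ratio, and plasmids from each gate were PCR-amplified, Illumina-sequenced and assigned to strains by barcode. Summing, across gates, the read frequency times the gate number gave each peptide's protein stability index.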

Sequence | protein stability index (doa10∆) | protein stability index (pdr5∆) | protein stability index (san1∆) | protein stability index (ubr1∆)
LKHKSICSCVNRGVKLE [RPP1] | 2.31 ± 0.068 | 2.75 ± 0.051 | 2.57 ± 0.068 | 2.68 ± 0.034
PSESEHPIRVLMASVIL [YDL116W/NUP84] | 1.87 ± 0.076 | 1.89 ± 0.064 | 1.75 ± 0.062 | 1.78 ± 0.08
LTKLNEDDLVGVVQMVT [TAF14] | 2.89 ± 0.086 | 3.18 ± 0.074 | 3.02 ± 0.065 | 2.98 ± 0.063
SSYMGKHWTEKSLHEMN [PRP28] | 3.23 ± 0.14 | 3.14 ± 0.23 | 3.07 ± 0.19 | 
ILQYFEKWISSKNSKLS [SIR3] | 2.8 ± 0.15 | 1.48 ± 0.087 | 2 ± 0.26 | 1.27 ± 0.083
GVSIENENKVIIELPNE [SRB4] | 2.77 ± 0.1 | 3.02 ± 0.1 | 3.06 ± 0.055 | 2.6 ± 0.06
SKRVYKILSPTMYMEVY [CDC53] | 2.29 ± 0.075 | 2.68 ± 0.098 | 2.15 ± 0.076 | 2.63 ± 0.092
MRNFSKQNQDSKHNERN [YDL088C/ASM4] | 3.01 ± 0.11 | 3.32 ± 0.14 | 2.46 ± 0.09 | 3.34 ± 0.093
QQQQQQQVPPLPDELTL [DLS1] | 2.63 ± 0.035 | 2.72 ± 0.038 | 2.727 ± 0.027 | 2.689 ± 0.025
LKDIEARIKEKAGVKES [RPT1] | 2.38 ± 0.27 | 3.42 ± 0.19 | 3.22 ± 0.11 | 3.31 ± 0.081
GESARRFQKCFPPGVIG [RPC40] | 2.24 ± 0.1 | 2.34 ± 0.18 |  | 2.83 ± 0.12
IRPDGRLPHQFRPIEIF [RRP42] | 1.84 ± 0.087 | 1.94 ± 0.084 | 1.35 ± 0.12 | 2.16 ± 0.073
GHLNGHTPTIASYLTPL [SSN2] | 2.24 ± 0.039 | 2.74 ± 0.043 | 2.62 ± 0.044 | 2.54 ± 0.035
TVISGDPNLELDQVGVP [RPO21] | 3.48 ± 0.23 | 3.2 ± 0.13 | 2.48 ± 0.23 | 3.04 ± 0.16
RKIVFRCSECIKILGSE [RPN4] | 1.22 ± 0.14 | 1.88 ± 0.25 |  | 
GKLLRNYTQNIDNLESY [SIR2] | 3.48 ± 0.21 | 3.17 ± 0.27 | 3.09 ± 0.13 | 
SHFSPDIKAAVDDSMEL [ITC1] | 2.27 ± 0.096 | 2.44 ± 0.12 | 1.9 ± 0.15 | 2.48 ± 0.079
CRGELKADIGKPGRMPF [CDC53] | 2.21 ± 0.071 | 2.65 ± 0.069 | 2.91 ± 0.085 | 2.97 ± 0.067
KFELGRQPANTKIGAKR [RPS8A] | 2.87 ± 0.06 | 3.1 ± 0.068 | 2.91 ± 0.11 | 3.18 ± 0.055
YYLGQYYGCLENDHERG [CSN12] | 2.68 ± 0.098 | 2.85 ± 0.093 | 2.84 ± 0.06 | 3.06 ± 0.052
DHSMILPSGVLSRGDDE [SMC3] | 3.08 ± 0.094 | 2.51 ± 0.082 | 2.19 ± 0.12 | 2.39 ± 0.04
FNGLKPLIQNSMRTIMK [PRP8] | 2.56 ± 0.091 | 2.51 ± 0.12 | 2.15 ± 0.17 | 2.56 ± 0.15
LLSGEDLTLDDISLKAD [YJL039C/NUP192] | 3.36 ± 0.052 | 3.39 ± 0.065 | 3.44 ± 0.038 | 3.23 ± 0.048
KTAFKPHELTESVLPAA [QCR2] | 2.36 ± 0.049 | 2.69 ± 0.051 | 2.62 ± 0.057 | 2.8 ± 0.038
LEFSIYHRLSNKDMIKN [CSN12] | 2.36 ± 0.096 | 2.91 ± 0.13 | 2.36 ± 0.18 | 2.79 ± 0.15
VTTFLNWCAEPEHDERK [CYT1] | 3.41 ± 0.089 | 3.39 ± 0.092 | 3.08 ± 0.18 | 3.15 ± 0.077
QVKVKGQLGEMAKCLDN [YCS4] | 3.25 ± 0.11 | 3.17 ± 0.13 | 3.19 ± 0.066 | 2.73 ± 0.076

Sequence | protein stability index (doa10∆) | protein stability index (pdr5∆) | protein stability index (san1∆) | protein stability index (ubr1∆)
FEPSISRSNFQGKHTKF [LRP1] | 3.2 ± 0.1 | 3.26 ± 0.15 | 2.97 ± 0.14 | 3.28 ± 0.094
VTTFVFTGQGSQEQGMG [FAS1] | 3.46 ± 0.15 | 3.49 ± 0.13 | 3.48 ± 0.14 | 3.68 ± 0.18
IVHSSDGHLQFLNDVIP [DLS1] | 2.99 ± 0.082 | 2.75 ± 0.077 | 2.6 ± 0.16 | 2.51 ± 0.088
KELFEKTFDYVSDHLDA [SMC1] | 3.35 ± 0.085 | 2.87 ± 0.068 | 2.9 ± 0.077 | 3 ± 0.049
EIKNWISDIPYVISLSY [YMR129W/POM152] |  |  |  | 1.27 ± 0.27
PRLDTSKEFSAYVSGLF [YJR042W/NUP85] | 2.33 ± 0.13 | 2.08 ± 0.082 | 2.05 ± 0.13 | 3.12 ± 0.13
HMMKRWGYQMVWAPTQK [POP1] | 2.15 ± 0.054 | 2.4 ± 0.051 | 2.59 ± 0.059 | 2.56 ± 0.054
GSGAPVYLTAVLEYLAA [HTA1] | 1.64 ± 0.076 | 1.7 ± 0.077 | 1.55 ± 0.12 | 1.75 ± 0.045
TVRASSLQDLIYKRGQA [SMC2] | 2.12 ± 0.073 | 3 ± 0.088 | 2.62 ± 0.08 | 2.51 ± 0.036
GGLNDPRLGSIDRNLKC [RPO21] | 3.35 ± 0.17 | 3.28 ± 0.11 | 3.32 ± 0.094 | 3.33 ± 0.086
FSNKYLELCKLASNNLE [RRI2] | 1.95 ± 0.054 | 2.1 ± 0.039 | 2.02 ± 0.068 | 2.02 ± 0.043
RNVVEDINQAKDFIENV [BRN1] | 3.25 ± 0.13 | 3.31 ± 0.097 | 3.24 ± 0.078 | 3.25 ± 0.072
AIIDKNTGLTFKKNLQV [PRE4] | 3.22 ± 0.081 | 2.79 ± 0.076 | 2.79 ± 0.11 | 3.35 ± 0.082
SEYMVFGKLAFPTRLGQ [YJL039C/NUP192] | 3.01 ± 0.073 | 2.52 ± 0.062 | 2.75 ± 0.067 | 2.15 ± 0.059
DDLQSSVIPEVDREAML [YCG1] | 2.63 ± 0.085 | 2.71 ± 0.081 | 2.48 ± 0.12 | 2.4 ± 0.078
ADVSKLMYSITFHHHGR [SRB2] | 2.82 ± 0.053 | 3.01 ± 0.056 | 2.79 ± 0.049 | 2.98 ± 0.04
QFSLPNGDNSTTTNTDQ [SNF12] | 2.47 ± 0.047 | 2.2 ± 0.055 | 2.318 ± 0.014 | 2.31 ± 0.05
TICIELKTVLHNGRDKI [RGR1] | 1.55 ± 0.051 | 1.62 ± 0.062 | 1.78 ± 0.085 | 1.78 ± 0.067
AAASESDVAKQLASFGY [RPL16B] | 2.67 ± 0.032 | 2.62 ± 0.028 | 2.28 ± 0.037 | 2.356 ± 0.019
TVGSSNGGLIHVVTREK [RPO21] | 2.98 ± 0.15 | 3.19 ± 0.12 | 2.87 ± 0.13 | 3.09 ± 0.07
MKANPALYVLRERIRKG [PRP8] | 2.47 ± 0.23 | 2.87 ± 0.11 | 2.66 ± 0.12 | 2.41 ± 0.29
NELLDLTESQTETYISD [RPN5] | 3.17 ± 0.073 | 3.35 ± 0.069 | 3.12 ± 0.046 | 3.21 ± 0.069
DQCVGQVGLNFELSFTG [YMR129W/POM152] | 2.94 ± 0.061 | 3.01 ± 0.077 | 3.06 ± 0.046 | 2.97 ± 0.043
RDLILKKGEYARFKSKD [SMC3] | 2.81 ± 0.17 | 2.72 ± 0.18 | 2.65 ± 0.21 | 2.77 ± 0.076
ITRSFKEPRLVIVTDPR [RPS0A] | 1.56 ± 0.2 | 1.89 ± 0.13 | 1.98 ± 0.14 | 1.28 ± 0.13
CQEEVSTIEKDMKEYDS [SMC2] | 3.39 ± 0.12 | 3.51 ± 0.084 | 3.42 ± 0.081 | 3.63 ± 0.095
ENKVMLPRCSKEEFRLM [RRI2] | 1.8 ± 0.06 | 2.1 ± 0.076 | 2.06 ± 0.088 | 1.7 ± 0.048
